Experimental data taken from the domain aggregation screens of Martell et al. (2025).

Experiment: soluble fraction after stress (log2 fold change); higher = more stays soluble; pooled small domains, quantitative proteomics
Conditions: stress: 75 degC
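Note: 20 min heating vs room temperature control held 20 min.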

Sequence | soluble fraction (log2)
HMQANLPFSELLADVDRGLISDVTIKGDQVSGHYTDGRTFNTFIPPEADLVRRLTEKNVRIAAVPD | -0.113
HMQAPAFDYSKVQEGVTVNHKIFGDGTVSWIDKARKYIRVQFSVGEKMFTMETAFVQGFLSL | -1.19
HMQAPVDPIVLGKMGSSYGIRGWLRVFSSTEDAESIFDYQPWFIQKAGQWQQVQLESWKHHNQDMIIKLN | 0.2
HMQARLPFSFAKRHGVILLAATGEGQSDVIYKSGFDIGALAEVRRFVAGEIALKEVDGPSFDRQLTLTYQN | -2
HMQARSQQTIQTLFKAAAQILDKEGEAGLSTNKVAAAAGFSIGTLYQYFPSKEVLIQAMAAR | 0.219
HMQASISVDEAKSIALNYAKFTADQVVYTKSELDYDDGRAEYEIEFYAGGKEYSFTIDAVSGTVLEMEI | -2.26
HMQATDEEIENFTSSAITAYKLTKEEGYIISMRDMKPIMEIVKTEYPMANGKVVSKVMNNYING | 0.0264
HMQDELSSSVIEEAVVVLLLRAANIDGKKDEQEIEAIKRLIIQQFNYDEEKADILITSASEK | 0.0178
HMQDGTILPGQKTAIRSLATSGGYDSQDLDTYLATTYGKSIDGLTRTEGADVIKAFQAGTVAK | 0.436
HMQDLEIKINLGMTYYEVREAIGSPDIIDKINQYGRDFQMWTYYIDDKTKRYYFEDHLLTKI | -2.84
HMQDLPPIHLSRGMTDYTLVRSRRRTLSMELKRDGTVVVHAPLRLGVEKIDAFVAAHEAWLARARTRQAER | -2.59
HMQDNPELVARIEKAAARGTSSMSDWERSFMGSLLDSAKKWGRLTAKQHEVFQRIEKKTDPAHQAAVS | 0.111
HMQDPRITRTRGLILQAFDALLVEKGFHALSVQAIAGRAGINRATFYAHFADKYALLDTSIQE | 0.227
HMQDREKNIAEGRDIIEHEFMRLGISLSRYDLDGLASKLNVKAGDDVLAGVGAGDIRVSQIISQLG | -0.0551
HMQDTVKNVFGAFTIFTDKPFAIGDTINVNGLEGTVVDVGMRSTQILGYDRRITSYPNYKITDSSIVNISS | -0.0554
HMQDVVFTVDKDQTGAEIGDMLYEKGIISSPTTFRLALRLTGSMDKLQQGYYQIPQNASLRQVIALLQKG | -0.35
HMQDYYTQSDFARYLEDKGIHFPQNKIAVYRKRGKFPKEDLVVAGTPYWSKYTVESFAKHLLEQQN | 0.254
HMQEAATSLNAKILAKLRENNGTLAVSDKSDPALISSLFGVSKGNFKKAIGALYKNGQIVIHADRIEL | -0.813
HMQEDQKTSIFDIEGVEKGVASVLSSIKVEIVSDLLEADMDDILKSGKISEDDLDGVYEAVQNFVER | 0.41
HMQELNDQQRLAILNEWNNRATNPPSLLELVRVAFPDAEGADGRSWHGKKVKEFLSTRQIKARAS | 0.0119
HMQENFYMILESEERRVLDVLVADQPESVATFLKLVSPFPNYKIILEHINEKALDFYEETVI | -0.35
HMQESTILPAQKSAISSLATSAGFSSENLKRYLLQNYGVDLKDLTRSQGAEVIKAFQSGNVSKP | 0.281
HMQETPAMLAMKELPTEDEQRIYMMLQEDYDSVLLVKTIRNAFSQNPQLTRQQLLPIILTWLMT | -1.33
HMQGATVYIKSDDIGKTTNEQGSFNFDKLKKNRYTLEISFIGYETKNLQAYTDRENIVQLNRKS | -0.307
HMQGEVPYSQFLTEVDRGDVQSVVIEGNNISGFYKNSSTAFTVVAPDDPKLVERLMEQGVEVKARPV | 0.112
HMQGEVVTNRSVIDMSRAGLSADIIRAKILRSDTNFDVTAKALIELKESGVPDDIIALMLERADS | 0.00604
HMQGIPVTVTAERANLRSGPGTSFDKLGQVVQGDVLTLLEVQNDWYKVKTAEGKTAFVAAYLVNSP | -0.269
HMQGQADFTQGIANFTQYPVGSRITVFTLEGRRVAVVEIGKDGTAQLDMRNKPAGVYIVNTGKQSFKWLK | -2.65

Sequence | soluble fraction (log2)
HMQGRIYLNPDLAEKLRAQYAAYPHWSYLLHTENLGALVRKTESLGPMPSYSTILRYMHANDMRKRNKP | -1.78
HMQGVNLTETEKNFIAQVLSPLLKQGQSLYQIRTNHPEIKLSVKTLYTYIESGIFKESGINNFSLRRQ | -0.122
HMQILNVFSKHGIKPISPQIGDKFDPQLHEAMFEAPVPGTKAGDIIEVSSEGFMLYDRLLRPAHVGVSSN | -0.0306
HMQILPAFLPENPELRARLANHSLEELTEILKQYKTLHNSTDVDTVKRAIRAIEIEEYYAVHPV | -0.731
HMQINLKQSSDEELVKIITVQVHHYEPHTVKAAEAEIERRGIDKMRMAHLVKKVAQENTAVQEIQD | 0.297
HMQISDDSELIKIVDNILANSQKQIDDYHNGKTNLFGFFVGQVMKETKGKANPVKVNEILKDKL | -0.00828
HMQISDSSLIAKTVATVILENPEAVSDYLGGKHSVVRFMVGQIMKKTQGKANPKMATEMLETALNDL | -1.88
HMQISDTTELSTLITKVLSEQSDALVDFKNPKKQKQVIGYLTGQVLRASQGKANPGLVRSLLEEQLSALDS | 0.0724
HMQISMQNIASVKIDDLSDEQIQEFSTKYTAAGYSFPDVENVAKQKGMPSSEIEKLRQRVLTAQNTQEK | 0.283
HMQISSSEVLEKVVDEILSANPKSIEDYKNGKLQAAGFLMGQVMKATKGQANPAVAKELIEAKLKD | 0.461
HMQISYDVPNLIGKSYEEVMTDPSILGEHFTVVLGETKTDEDTDAGVILHQDPAADSKVQDEVTPITVTVS | 0.374
HMQITDTEAIATTLDEIIAANPKEWERLKAGQEQLVKFFVGQVMRVTKGRANPQVVNDLLKERL | -0.346
HMQITNEGQIKLVISEVLNENQEQKKQYLSGKEQVLGYLIGKVMQKTKGKANPKLVNDLMIKELS | -0.135
HMQITSTDEIEKMIDELIAANPEQTKQYQNGNHKVAGWFVGQMMKASKGKANPQMVNNLLQKKL | 0.278
HMQITTVSPKNYAEAELIGQRFREGNPVVMDLSKLDSDLGQRLVDFASGLVFALNGTVERIAKKVFLLSP | -1.37
HMQIVHKHLQLQPDQGALRAALYSHKAVVAEQVNEQGAINLEIKLAESDFLRLLKSSGLKLQDLVSLS | -1.35
HMQKAQEYILVDIKGEVQTPGVYKLPVNSRVIDAIEASGGLTKKAVTTYINLSKTLKDENVIIINKKSEL | -0.59
HMQKITPDNWTYIRSLIRQKWSPDQIDQWLKKHPDVGFTVSRETIYQYVKEDRQKDGDLYLSLRRAGKSY | -2.18
HMQKLKINKYKDPKGEIRYYIASTIRNGNKSSTHNLLSLGKHSDLLKEHSDVEAYLKERLNEAMESGI | -0.0843
HMQKPDIEVDFAEGDMVVVTGGAWKDTAGVITGINMQKQTVTINVELFGRETPVEISFTEIKKA | -0.117
HMQKVPDAFKAEQVQTLITRLGVSRAELARTLDVSLSTVNKWASGAVEPKGSALVLLKVLWMHGFKAL | -2.85
HMQLDDDQKEELILKLIDSLDTTKKGAPLTELAREAAKSNIGESELEEITTSLLDKGLVYEPTIGKMKR | 0.394
HMQLDLNENEKIIFEILQNNKTMQLSNLKTQTELSNKGWDKAIKSLTKQGLAKVSKIDNELIVEFL | -0.466
HMQLKFTDLRKEILRMIWEGHGPQKAYDLLNKLQQTNPSAKPATVYRALDFLIGNGFIHKVASLNAFVG | -0.59
HMQLKKDTILSYIEEKLIDSYNSNKGFTTQEISVALNMQRTNVSAILNNLVKENKLVKTKGKPVRYFLSG | -0.636
HMQLTPAQHAILAHALEHSDGKIVWFPDNIKGGARKKVLDGLLNRALITTDGTDWFVAAEGYDAMGR | -0.386
HMQLTVAVLIKNISKGQVISQGFLGFEARPERQIRGAYTNISEVLGRKAKSNIAVGTILKARHLDT | -2.87
